Target: T1, human MerTK on cells (human, UniProt Q12866 21-999)
T1 sequence: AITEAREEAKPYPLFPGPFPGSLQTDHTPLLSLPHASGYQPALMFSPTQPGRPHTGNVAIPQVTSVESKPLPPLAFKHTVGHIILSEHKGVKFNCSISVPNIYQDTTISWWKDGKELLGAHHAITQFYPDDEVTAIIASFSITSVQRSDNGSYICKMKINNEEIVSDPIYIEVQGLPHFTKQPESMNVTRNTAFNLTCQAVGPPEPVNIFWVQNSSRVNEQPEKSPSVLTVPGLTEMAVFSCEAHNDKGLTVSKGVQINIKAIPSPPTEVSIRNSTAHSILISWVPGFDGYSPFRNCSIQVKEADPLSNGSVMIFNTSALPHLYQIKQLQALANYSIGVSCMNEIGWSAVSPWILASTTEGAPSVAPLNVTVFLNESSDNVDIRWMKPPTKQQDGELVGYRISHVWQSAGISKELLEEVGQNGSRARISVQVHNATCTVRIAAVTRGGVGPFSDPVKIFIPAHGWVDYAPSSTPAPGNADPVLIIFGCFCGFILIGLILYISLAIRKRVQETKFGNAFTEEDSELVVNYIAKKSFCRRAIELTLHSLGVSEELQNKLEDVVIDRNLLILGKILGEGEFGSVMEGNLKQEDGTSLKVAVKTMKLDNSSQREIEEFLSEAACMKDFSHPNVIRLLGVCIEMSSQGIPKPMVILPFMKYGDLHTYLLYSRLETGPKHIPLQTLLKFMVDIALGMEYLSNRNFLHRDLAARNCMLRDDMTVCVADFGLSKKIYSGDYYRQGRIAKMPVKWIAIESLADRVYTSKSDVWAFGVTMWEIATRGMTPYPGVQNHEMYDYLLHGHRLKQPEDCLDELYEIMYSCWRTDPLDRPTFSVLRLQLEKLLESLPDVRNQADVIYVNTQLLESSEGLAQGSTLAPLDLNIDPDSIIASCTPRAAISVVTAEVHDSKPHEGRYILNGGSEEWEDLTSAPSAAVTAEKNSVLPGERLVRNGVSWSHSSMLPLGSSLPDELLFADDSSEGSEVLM
Test: cell-based or functional assay

B1: MTK-22 (antibody, human IgG1, V domains shown)
VH: QVQLQQPGADLVEPGASVKLSCKASGYTFTSYWMHWVKQRPGQGLEWIGEIDPSDSSSNYNQKFKGKATLTVDKSSSTAYMHLNSLTSEDSAVYYCARRYYYGSLYFDNWGQGTTLTVSS
VL: DVVMTQSHKFMSTSVGDRVSITCKASQDVGTAIAWYQQKPGQSPKLLIYWASTRHTGVPDRFTGSRSGTVFTLTISNVQSEDLADYFCQQYTSYPLTFGSGTKLEIK
  IC50 of blocking of Gas6-mediated pAKT activity in human M2c macrophages (HTRF): 0.531 nM

From patent US20240287204A1 (published 2024)
